Assays:
[1] = target: T1, RecA (Escherichia coli, UniProt P0A7G6 P0A7G6:2-353); assay: competition; 80 uM oligo competes against 8 uM ds-PhiX174 in EMSA; conditions: tags: none (released from His6-Smt3-RecA by Ulp1 403-621 cleavage)
Method: (§1) The biological activities of the purified RecA protein was tested as follows. First, an electrophoretic mobility shift assay was performed to examine whether the RecA protein was capable of binding to DNA, following the method described in Chen et al., Proc. Natl. Acad Sci USA 101: 10572-10577 (2004). […] Six oligonucleotides, i.e., (CT)₂₀, (CA)₂₀, (GT)₂₀, (GA)₂₀, (AT)₂₀, and (CG)₂₀ described in Biet et al., Nucleic Acids Res 27:596-600 (1999), were used to determine the preference of the RecA protein for binding to double-strand (ds) or single-strand (ss) DNAs. 80 μM of each of the oligonucleotides was incubated with the RecA protein in the presence of circular ds-ΦX174 (8 μM) DNA and then a mobility shift assay was performed to examine the binding between the RecA protein and the ds- or ss-DNAs.

[2] = target: T1, RecA; assay: competition; 80 uM oligo competes against 8 uM ds-PhiX174 in EMSA; no significant effect at 2, 4 or 8 uM; conditions: tags: none (released from His6-Smt3-RecA by Ulp1 403-621 cleavage)
Method: as §1

T1 sequence (P0A7G6 2-353, one chain of several): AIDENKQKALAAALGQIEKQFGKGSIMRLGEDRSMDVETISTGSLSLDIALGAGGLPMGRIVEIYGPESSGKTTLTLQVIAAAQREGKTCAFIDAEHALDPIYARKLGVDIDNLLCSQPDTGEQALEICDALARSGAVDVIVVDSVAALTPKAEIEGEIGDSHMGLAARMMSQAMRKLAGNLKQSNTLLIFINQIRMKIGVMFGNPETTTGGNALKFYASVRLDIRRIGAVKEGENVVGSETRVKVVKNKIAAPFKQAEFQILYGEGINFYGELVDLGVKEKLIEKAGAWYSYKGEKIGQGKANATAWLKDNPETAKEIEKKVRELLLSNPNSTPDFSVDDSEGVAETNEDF

Row | Binder | binding result [1] | binding result [2]
1 | GTGTGTGTGTGTGTGTGTGTGTGTGTGTGTGTGTGTGTGT (ssDNA) [(GT)20] | binds | 
2 | CACACACACACACACACACACACACACACACACACACACA (ssDNA) [(CA)20] | binds | 
3 | CGCGCGCGCGCGCGCGCGCGCGCGCGCGCGCGCGCGCGCG (ssDNA) [(CG)20] | binds | 
4 | GAGAGAGAGAGAGAGAGAGAGAGAGAGAGAGAGAGAGAGA (ssDNA) [(GA)20] | binds | 
5 | CTCTCTCTCTCTCTCTCTCTCTCTCTCTCTCTCTCTCTCT (ssDNA) [(CT)20] |  | binds
6 | ATATATATATATATATATATATATATATATATATATATAT (ssDNA) [(AT)20] | binds | 
